# Legend:
# [1] = target: endogenous Tctex-1 protein of PC3 human prostate cancer cells (human) (UniProt P63172); assay: cell-based or functional assay
# [2] = target: V5-tagged Tctex-1 (V5-Tctex-1 fusion protein), expressed from pcDNA3.2/V5/GW/D-TOPO (human) (UniProt P63172); assay: cell-based or functional assay
# Sequence of V5-tagged Tctex-1 (V5-Tctex-1 fusion protein), expressed from pcDNA3.2/V5/GW/D-TOPO (human) (P63172 whole entry, the tested form may be a part): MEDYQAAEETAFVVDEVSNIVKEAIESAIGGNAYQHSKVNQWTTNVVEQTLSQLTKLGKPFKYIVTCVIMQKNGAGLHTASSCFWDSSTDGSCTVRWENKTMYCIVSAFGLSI
# Sequence of endogenous Tctex-1 protein of PC3 human prostate cancer cells (human) (P63172 whole entry, the tested form may be a part): as above
substance,measurement,setting,value
REIC/Dkk-3 protein overexpressed from adenovirus REIC/Dkk-3 (Ad-REIC) in PC3 cells (from UniProt Q9UBP4 22-350),"apoptosis incidence (Hoechst 33342) in PC3 cells treated with Ad-REIC, group treated with shRNA-Tctex-1",[1],15%
same,"apoptosis incidence (Hoechst 33342) in PC3 cells treated with Ad-REIC, group treated with the GFP plasmid",[1],30%
same,"apoptosis incidence (Hoechst 33342) in PC3 cells treated with Ad-REIC, group treated with the Tctex-1 expression plasmid",[2],75%

# — US20130267025A1
